# Results from the NTF2 design screens of Basanta et al. (2020).
# Test: protease stability score; higher = more stable; yeast display proteolysis, trypsin and chymotrypsin;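 note: relative to predicted unfolded state with 0 unfolded-like and 1 meaning tenfold more protease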
row,Sequence,protease stability score
1,SEDEEKATEFFRLLVDNWLTGDEENVERLLDPRVRVLVGDKMIHGRHLSARLESEFLKRIPNLRIRFHLHDVRTYGDKAHLDIIIDIHFNGVDIHIESELVVVKIDGRWLFKEERRK,0.276
2,SEHELIAHEIVERWVHDVNTGDWENLHRLFDPNTKIDFNGVHLHGRRSLEEWIHEHLRRADHFEVRIKDIRVQGEKSVANTHVNVNINGQEYRRDTSLILIIVDGKVKTMTIRVH,1.5
3,DEDEELAKHAIKHWLEALETGDEKRLKELIDPNTRLIVNGQEFHGMESVSKKLIEEIERIPNVTLELHDVRIYNGRVNTDVTVRYNGRTITLHLIILKVNGKWIMESIQLH,1.78
4,SEEEEELKKFLDIFLRALRTGDFDESLRLMDPRYRSIVGDKRHIGMENLYRWLTEMRIERVHFELDSFRIQGNKLEIDIRNDVDGQIDGKQFRIEFEVHIHMEKYNGKWVVHVLEIR,0.932
5,DEDEELARRHLKRLMEIWNTGDEDSHRHLADPHMRYIYNGKQTHGRQVSAKILLEMRIDHLEIKRMHLVDGKLEIDGRMEGEVNGRKDTVEVIIHNEKVNGRWIIRELQFG,0.503
6,DELHKLAEDHLEDFSRAIHTGDEDHLHHLIDPDVRYHQGDKNLHGRESWHEILERIDHVESEDVKMHRIERQGNKLIIDGEWHMRFVYNGQEKRVEMNTIVILLKVNGKWVNEAWHIR,0.463
7,SEDEHEALKVSEQFIRDLLTGDEDTFNRLADPNTRSEVGNKRQHGMDEVTHLWKELRIEDFTLRDQKIRIIGDKAEIDMDGEMVIIVNGKRVVQRVTLHLRVRKINGRWILHSIKLHIE,1.3
8,DELTTLAREFLRLIKEVLETGDERTMHELADPNYRIRIGDKLVHGWEQQSELIIRIRTELGMTVKDSRIEDSHVQGDKLVVRVRLDMIQGDKKDSVDRIVRVDKINGKWIMSEIELI,1.49
9,NDIEQIVREVLELIYHAIATGDWEHIYKNADPNVKYEQGDKEFHGREILSEMIVHIRLRDLELNRLHIVGDKVHIHGHFHMDINGRERLVKTEYIIRKVDGQWRLESLIIR,1.23
10,HRDEELSEEILRLILEILRTGDEDELRRLIDPHVRVSIGDKEKHGREWYLELVNVAGIKYIELKRIHVIGDKAHFETYVHVDGRDISLQFIILKINGKWFITSIRIETR,1.4
11,DEDKEAKEESWRIYLHSLLTGDEKEIERLVDPNARLDINGQEHHGRHMVLTHVLRLMVRADHLDDIEIHHMEVIDGQLHSDVILKITINGRDVHIREHYLLRKVNGRWYFKSIEVR,1.7
12,DELEHIERRYWHLFVRALETGDEERLDRLVDPHARLDWNGREIVGREHLRHYLSHMRIVIEHHHIKDVNIQGEKIDSDIHLVLTMHVGDKDLEIRTDARSIHLKIDGKWLIESHKIK,0.966
13,SELEDMLRHMFDLFWRAFRTGDWELLMRLADPHVRLEVRFNGRHIEHVGRESFVESVETLRHEWRIDHLRINDEKYQGDYVNLNTRMDVFFDGVKVRTDTRVHSVVVNGRLREFSIEFG,0.495
14,DHETRWLRHVLKIWDHMVETGDWEKSERLADPNTKLVIDGVDLHGRRDYNRHMRELRVHHTEINDVELTNIGDKVHLYREVDYDITVDGRRIITHIELFLIIRKVDGRWILEEQEVNFR,0.236
15,DEEDELFEIFIREWRRLVKTGNFKEIVDNADPHAKSVINGKELVGREHMSRLMLELGIKYYDERSWDVYGDKVVIHGREKFNGRESESIVFAEKVNGRWVLTKVEIR,1.45
16,REEEERLKDLERVMRELWRTGDEREMSRNADPHVKLSVGDKEFHGRELFTKWASRVDHYDHLIIRDIETQGDKVRMYVETEMDIDGKDVKTESFILAVKIDGRWILRSLELR,0.387
17,NELEKETHEITRRWIEILLTGNEEDWAKLADPHVRIDINGKKYVGREMVVEYLRELLDKIKNLQFHITRIHDQGDKSEIDGRLEYNGRKHEARVEIWIIDGKIRSEHYSIR,2.2
18,SEDEEWSRLIVEEFIKVLDTGDERLTSEMLDPNARIVIGDKHIHGRESLVELIHRIKNIKFDFKHVNTQGDKVEVDGTIVFNGRTTTVLIRMKKVNGRWFVTEIHIE,1.9
19,DEDEDSFRRISKLLSHAFRTGDEDLVLELLDPHVRIVIGDKELHGWEQMDRWVRELRIRDHEIKRLDIQGDKAIVDTRLLTRVGDFHYLIDVRIIFTKVDGQWHVHQFEFH,1.52
20,HEEKENIEQFMRDLLHNWTTGNFEKIKEFLDPNTRIDWNGKDIHGRETESEEVKKYGIDHMSIILRHHTVQGDYAHIDTEIKIDINGRKIHIDARIDLLKINGRWVQKHVLYL,1.3
21,SEEEHKIRKLLEDLANFIRTGDEHRINELLDPNVMIDINGQKFHGRESLETVYHEWLKRVDHIEDLRIDDISKQGEFLIMHANMTLRQGDKHHRENVHIIILKVDGRWIMTSILFR,2.2
22,DEEEKLATIVMELIEETWETGDEDLFEQLADPNVRVEIGDKVYIGREIALEWFVREIRKRGAELKHTTTHNLDVQGDKVNNDMKVNGNINGRVVIFTTHLDVRKINGKWFLRSISFK,1.29
23,DHREEHDHEISELMREALLTGDEQLISHLADPNVRFEVFVGDKVIRWVGRESMMEAFERWVREIRIEDLKVKHVDIFNGRVDVVTTLHVEFDGRKHDLETRLIFEVVDGKVKHLQVHHH,1.36
24,DESEEESHKVAELVIKIWETGDEHIWENLADPHTRYEIDGKIIHGREIASHIMRIFLERVKNVTFRIKDVKRHVYNGVIEVRNETELNIGDKRIDTHIMVILRKVNGRWYMTEVRFQID,1.53
25,DEEEEESKQVAELIITLLTTGDEERFLELADPNVRHHQGDKELHGREDLHKTVEDWGWSKVDSRLEDVEVQGEFVIVRGKMIVNGRRVDVEYIVRKVDGRWYIHMVIYH,1.07
